Reference: US20090291081A1 (AbbVie / Abbott, published 2009)

T1: human IL-1α (human, UniProt P01583 113-271)
T1 sequence (looked up): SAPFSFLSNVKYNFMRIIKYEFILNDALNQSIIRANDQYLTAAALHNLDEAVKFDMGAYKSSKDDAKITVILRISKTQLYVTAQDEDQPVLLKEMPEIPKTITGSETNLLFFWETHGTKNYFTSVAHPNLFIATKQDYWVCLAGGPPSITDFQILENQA


Target: T1, human IL-1α
Experiment: cell-based or functional assay

Row | ND50 [nM] | Binder
1 | 3000 | ABT1-97 (other) VH: EVQLLESGGGLVQPGGSLRLSCAASGFTFWEYDMYWVRQAPGKGLEWVSRISGSGRYTYYADSVKGRFTISRDNSKNTLYLQMNSLRAEDTAVYYCAKRSLTRPSQFDYWGQGTLVTVSS
2 | 500 | ABT1-99 (other) VH: EVQLLESGGGLVQPGGSLRLSCAASGFTFGKYSMTWVRQAPGKGLEWVSVIDPWGHYTYYADSVKGRFTISRDNSKNTLYLQMNSLRAEDTAVYYCAKSVDATLLRRYFDYWGQGTLVTVSS
3 | 0.391 | ABT1-95-165 (other) VL: DIQMTQSPSSLSASVGDRVTITCRASQPIVRNMRWYQQKPGKAPKLLIYSSSYLEPGVPSRFSGSGSGTDFTLTISSLQPEDFATYHCQQGYRWPVTFGQGTKVEIKR
4 | 0.017 | ABT1-95-175 (other) VL: DIQMTQSPSSLSASVGDRVTITCRASRPIVRNLRWYQQKPGKAPKLLIYASSYLEPGVPSRFSGSGSGTDFTLTISSLQPEDFATYHCRQGYRWPVTFGQGTKVEIKR
5 | 0.024 | ABT1-95-A6 (other) VL: DIQMTQSPSSLSASVGDRVTITCRASKPGVRNMRWYQQKPGKAPKLLIYAKSYLEPGVPSRFSGSGSGTDFTLTISSLQPEDFATYHCKQGYRWPVQFGQGTKVEIKR
6 | 0.093 | ABT1-95-169 (other) VL: DIQMTQSPSSLSASVGDRVTITCRASQPIVRNLRWYQQKPGKAPKLLIYAVSYLEPGVPSRFSGSGSGTDFTLTISSLQPEDFATYHCQQGYRWPVTFGQGTKVEIKR
7 | 0.151 | ABT1-95-173 (other) VL: DIQMTQSPSSLSASVGDRVTISCRASRPIVRNLRWYQQKPGKAPKLLIYSSSYLEPGVPSRFSGSGSGTDFTLTISSLQPEDFATYHCRQGYRWPVTFGQGTKVEIKR
8 | 0.2 | ABT1-95-170 (other) VL: DIQMTQSPSSLSASVGDRVTITCRASRPIVRNLRWYQQKPGKAPKLLIYASSYLEPGVPSRFSGSGSGTDFTLTISSLQPEDFATYHCQQGYRWPVTFGQGTKVEIKR
9 | 0.016 | ABT1-95-A5 (other) VL: DIQMTQSPSSLSASVGDRVTITCRASRTPVRNLRWYQQKPGKAPKLLIYSRSFLEPGVPSRFSGSGSGTDFTLTISSLQPEDFATYHCLQGYRWPPTFGQGTKVEIKR
10 | 0.004 | ABT1-95-178 (other) VL: DIQMTQSPSSLSASVGDRVTITCRASQPIVRNLRWYQQKPGKAPKLLIYSVSYLEPGVPSRFSGSGSGTDFTLTISSLQPEDFATYHCRQGYRWPVTFGQGTKVEIKR
11 | 0.027 | ABT1-95-176 (other) VL: DIQMTQSPSSLSASVGDRVTITCRASRPIVRNLRWYQQKPGKAPKLLIYAVSYLEPGVPSRFSGSGSGTDFTLTISSLQPEDFATYHCRQGYRWPVTFGQGTKVEIKR
12 | 2.3 | ABT1-95-168 (other) VL: DIQMTQSPSSLSASVGDRVTITCRASQPIVRNLRWYQQKPGKAPKLLIYSSSFLEPGVPSRFSGSGSGTDFTLTISSLQPEDFATYHCQQGYRWPVTFGQGTKVEIKR
13 | 0.059 | ABT1-95-171 (other) VL: DIQMTQSPSSLSASVGDRVTITCRASRPIVRNLRWYQQKPGKAPKLLIYSVSYLEPGVPSRFSGSGSGTDFTLTISSLQPEDFATYHCQQGYRWPVTFGQGTKVEIKR
14 | 0.011 | ABT1-95-A3 (other) VL: DIQMTQSPSSLSASVGDRVTITCRASKPGVRNMRWYQQKPGKAPKLLIYSVSYLEPGVPSRFSGSGSGTDFTLTISSLQPEDFATYHCLQGYRWPPTFGQGTKVEIKR
15 | 0.469 | ABT1-95-167 (other) VL: DIQMTQSPSSLSASVGDRVTITCRASQPIVRNLRWYQQKPGKAPKLLIYSRSYLEPGVPSRFSGSGSGADFTLTISSLQPEDFATYHCQQGYRWPVTFGQGTKVEIKR
16 | 0.171 | ABT1-95-172 (other) VL: DIQMTQSPSSLSASVGDRVTITCRASRPIVRNLRWYQQKPGKAPKLLIYAVSYLEPGVPSRFSGSGSGTDFTLTISSLQPEDFATYHCQQGYRWPVTFGQGTKVEIKR
17 | 0.022 | ABT1-95-179 (other) VL: DIQMTQSPSSLSASVGDRVTITCRASQPIVRNLRWYQQKPGKAPKLLIYSSSYLEPGVPSRFSGSGSGTDFTLTISSLQPEDFATYHCRQGYRWPPTFGQGTKVEIKR
18 | 0.035 | ABT1-95-166 (other) VL: DIQMTQSPSSLSASVGDRVTITCRASQPIVRNLRWYQQKPGKAPKLLIYSKSYLEPGVPSRFSGSGSGTDFTLTISSLQPEDFATYHCQQGYRWPVTFGQGTKVEIKR
19 | 0.006 | ABT1-95-184 (other) VL: DIQMTQSPSSLSASVGDRVTITCRASRTPVRNLRWYQQKPGKAPKLLIYSRSYLEPGVPSRFSGSGSGTDFTLTISSLQPEDFATYHCLQGYRWPPTFGQGTKVEIKR
20 | 0.713 | ABT1-122-750x (other) VL: DIQMTQSPSSLSASVGDRVAITCSASQHIWTEISWYQQKPGKAPKLLIYGSASRQKGVPSRFSGSGSGTDFTLTISSLQPEDFATYYCKQFAYFPNTFGQGTKVEIKR
21 | 20 | ABT1-141-29 (other) VL: DIQVTQSPSSLSASVGDRVTITCRASQWIQKQLAWYQLKPGKAPKLLIYSSSYLQSGVPSRFSGSGSGTDFTLTISSLQPEDFATYYCQQHLRVPFTFGQGTKVEIKR
22 | 10 | ABT1-141-32 (other) VL: DIQMTQSPSSLSASVGDRITITCRASQWIQKQLAWYQLKPGKAPKLLIYSSSYLQSGVPSRFSGSGSGTDFTLTISSLQPEDFATYYCQQHLRVPMTFGQGTKVEIKR
23 | > 10 | ABT1-141-562 (other) VL: DIQMTQSPSSLSASVGDRVTITCRANQWIQKQLAWYQQKPGKAPKLLIYSSSWLQSGVPSRFSGSGSGTDFTLTISSLQPEDFATYYCQQHLRVPMTFGQGTKVEIKR
24 | 3 | ABT1-141-33 (other) VL: DIQMTQSPSSLSASVGDRVTITCRASQWIQKQLAWYQLKPGKAPKLLIYSSSWLQSGVPSRFSGSGSGTDFTLTISSLQPEDFATYYCQQHLRVPMTFGQGTKVEIKR
25 | 2 | ABT1-141-31 (other) VL: DIQMTQSPSSLSASVGDRVTITCRASQWIQKQLAWYQQKPGKAPKLLIYSSSWLQSGVPSRFSGSGSGTDFTLTISSLQPEDFATYYCQQHLRVPMTFGQGTKVEIKR
26 | 100 | ABT1-149 (other) VL: DIQMTQSPSSLSASVGDRVTITCRASQSISSYLNWYQQKPGKAPKLLIGGLSGLQSGVPSRFSGSGSGTDFTLTISSLQPEDFATYYCMQWWRWPSTFGQGTKVEIKRAAAEQKLISEED
